Results on four molecules are retold here after publication PMC7954794, “Protein context shapes the specificity of SH3 domain-mediated interactions in vivo” (Nature Communications, 2021).

Assay [1] relates to PPIs identified as affected by the SH3 domain deletions. The assay can be described thus: Liquid DHFR-PCA low-throughput validation of PPIs affected by SH3 deletion (Fig. S1D-E). Format: cell-based, Saccharomyces cerevisiae. The following applies: Deletedscore/WTscore. The procedure, abridged: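 Yeast diploids from DHFR-PCA mating grown 48 h in synthetic complete MSG medium pH 6.0 with NAT and HPH, normalized to 1 OD and diluted to 0.1 OD in liquid PCA selection medium. Growth followed by OD every 15 min for 72 h at 30 °C.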

For another assay, the system named is ABP1. Put plainly: DHFR-PCA on solid medium, bait ABP1 (Fig. 1B). Format: cell-based, Saccharomyces cerevisiae. Conditions: bait ABP1, label = prey; 2-4 replicates. The source says:
Supplement 41467_2021_21873_MOESM8_ESM.xlsx, sheet "Fig1B" | column: medsize; medrep; Ratio; Score

Assay [2] relates to growth of ABP1 SH3-swapped strains in hygromycin B. Conditions: cited from earlier work. The source says:
Having determined that multiple PPIs require SH3s, we asked whether the latter establish PPI specificity independently from their host proteins by swapping domains (Fig. 2A). Using the second round of genome editing, we individually replaced Abp1 SH3 with the 27 yeast SH3s and 3 human Abp1 orthologs’ SH3s (CTTN, HCLS1, and DBNL, Fig. 2B). The reintroduction of its own SH3 (Abp1SH3 in Abp1) reconstitutes almost perfectly Abp1’s interaction profile (Kendall’s τ = 0.93, Fig. 2B).

The subject of a further assay is Hua2. Put plainly: Low-throughput liquid DHFR-PCA of selected Abp1 SH3 mutants (Fig. S3F). Type of assay: cell-based, Saccharomyces cerevisiae. The following applies: average. The method, then: Liquid DHFR-PCA low-throughput experiments were performed to validate the PPIs identified as affected by the SH3 domain deletions in the high-throughput solid DHFR-PCA screen (256 PPIs weaker or lost and 116 PPIs stronger or gained following domain deletions). Mating and the diploid selection were performed as described for the large-scale experiment, with the exception that the plates were in 384 formats. Following the second diploid selection, diploid cells were inoculated in a 96 v-shaped well plate using a robotically manipulated 96 pin tool in a synthetic complete medium with MSG at pH 6.0 with NAT and HPH. After 48 h of growth, optical density (OD) was read using a TECAN Infinite F200 Pro, and dilutions to 1 OD in sterile nanopure water were prepared. Cells were then diluted to 0.1 OD by combining 25 µl of cell suspension at OD = 1 and 225 µl of PCA selection media without agar in a 96-wells plate. Plates were incubated at 30 °C in a TECAN Infinite M Nano and OD was monitored each 15 min for 72 h. […]
Selected non-conserved positions (E6 , E13, N15 and N27) sensitivities to mutations for the Abp1-Hua2 PPI were tested in a low -throughput liquid DHFR -PCA assay. The growth of the mutants in the low -throughput experiment (average of four replicates of the total OD for each growth curve, y axis ) is compared to the mutants DMS score (x axis). […]

B1: SHO1 (protein, UniProt P40073 1-367, looked up)
High osmolarity signaling …: MSISSKIRPTPRKPSRMATDHSFKMKKFYADPFAISSISLAIVSWVIAIGGSISSASTNESFPRFTWWGIVYQFLIICSLMLFYCFDLVDHYRIFITTSIAVAFVYNTNSATNLVYADGPKKAAASAGVILLSIINLIWILYYGGDNASPTNRWIDSFSIKGIRPSPLENSLHRARRRGNRNTTPYQNNVYNDAIRDSGYATQFDGYPQQQPSHTNYVSSTALAGFENTQPNTSEAVNLHLNTLQQRINSASNAKETNDNSNNQTNTNIGNTFDTDFSNGNTETTMGDTLGLYSDIGDDNFIYKAKALYPYDADDDDAYEISFEQNEILQVSDIEGRWWKARRANGETGIIPSNYVQLIDGPEEMHR
Take B1: the Ratio in assay [1] (prey YJL128C_1) came to 0.6814; in assay [1] (prey YOR042W_1), 0.502.

B2: YBL039C (protein, UniProt P28274 1-579, looked up)
CTP synthase 1: MKYVVVSGGVISGIGKGVLASSTGMLMKTLGLKVTSIKIDPYMNIDAGTMSPLEHGECFVLDDGGETDLDLGNYERYLGVTLTKDHNITTGKIYSHVIAKERKGDYLGKTVQIVPHLTNAIQDWIERVAKIPVDDTGMEPDVCIIELGGTVGDIESAPFVEALRQFQFKVGKENFALIHVSLVPVIHGEQKTKPTQAAIKGLRSLGLVPDMIACRCSETLDKPTIDKIAMFCHVGPEQVVNVHDVNSTYHVPLLLLEQKMIDYLHARLKLDEISLTEEEKQRGLELLSKWKATTGNFDESMETVKIALVGKYTNLKDSYLSVIKALEHSSMKCRRKLDIKWVEATDLEPEAQESNKTKFHEAWNMVSTADGILIPGGFGVRGTEGMVLAARWARENHIPFLGVCLGLQIATIEFTRSVLGRKDSHSAEFYPDIDEKNHVVVFMPEIDKETMGGSMRLGLRPTFFQNETEWSQIKKLYGDVSEVHERHRHRYEINPKMVDELENNGLIFVGKDDTGKRCEILELKNHPYYIATQYHPEYTSKVLDPSKPFLGLVAASAGILQDVIEGKYDLEAGENKFNF
As for B2, the “medrep (log2 median colony size normalized to plate background, PCA score)” value with ABP1 was determined as 3.877.

B3: ABP1: yeast SH3-containing protein; SH3-deleted (D) or gene-deleted (KO) strain (protein, UniProt P15891 2-592, looked up)
Actin-binding protein: ALEPIDYTTHSREIDAEYLKIVRGSDPDTTWLIISPNAKKEYEPESTGSSFHDFLQLFDETKVQYGLARVSPPGSDVEKIIIIGWCPDSAPLKTRASFAANFAAVANNLFKGYHVQVTARDEDDLDENELLMKISNAAGARYSIQTSSKQQGKASTPPVKKSFTPSKSPAPVSKKEPVKTPSPAPAAKISSRVNDNNDDDDWNEPELKERDFDQAPLKPNQSSYKPIGKIDLQKVIAEEKAKEDPRLVQKPTAAGSKIDPSSDIANLKNESKLKRDSEFNSFLGTTKPPSMTESSLKNDDDKVIKGFRNEKSPAQLWAERKAKQNSGNAETKAEAPKPEVPEDEPEGEPDVKDLKSKFEGLAASEKEEEEMENKFAPPPKKSEPTIISPKPFSKPQEPVKAEEAEQPKTDYKKIGNPLPGMHIEADNEEEPEENDDDWDDDEDEAAQPPLPSRNVASGAPVQKEEPEQEEIAPSLPSRNSIPAPKQEEAPEQAPEEEIEEEAEEAAPQLPSRSSAAPPPPPRRATPEKKPKENPWATAEYDYDAAEDNELTFVENDKIINIEFVDDDWWLGELEKDGSKGLFPSNYVSLGN
Take B3: in assay [2], the “Hygromycin phenotype, literature” value is reported as “hygromycin resistance”.

B4: WT (protein, UniProt P15891 2-592, looked up)
Actin-binding protein: ALEPIDYTTHSREIDAEYLKIVRGSDPDTTWLIISPNAKKEYEPESTGSSFHDFLQLFDETKVQYGLARVSPPGSDVEKIIIIGWCPDSAPLKTRASFAANFAAVANNLFKGYHVQVTARDEDDLDENELLMKISNAAGARYSIQTSSKQQGKASTPPVKKSFTPSKSPAPVSKKEPVKTPSPAPAAKISSRVNDNNDDDDWNEPELKERDFDQAPLKPNQSSYKPIGKIDLQKVIAEEKAKEDPRLVQKPTAAGSKIDPSSDIANLKNESKLKRDSEFNSFLGTTKPPSMTESSLKNDDDKVIKGFRNEKSPAQLWAERKAKQNSGNAETKAEAPKPEVPEDEPEGEPDVKDLKSKFEGLAASEKEEEEMENKFAPPPKKSEPTIISPKPFSKPQEPVKAEEAEQPKTDYKKIGNPLPGMHIEADNEEEPEENDDDWDDDEDEAAQPPLPSRNVASGAPVQKEEPEQEEIAPSLPSRNSIPAPKQEEAPEQAPEEEIEEEAEEAAPQLPSRSSAAPPPPPRRATPEKKPKENPWATAEYDYDAAEDNELTFVENDKIINIEFVDDDWWLGELEKDGSKGLFPSNYVSLGN
In the case of B4, in the assay on Hua2, the “ave_au (DMS validation)” value turned out to be 93.0274 au.
